Earlier results on two substances are cited in publication PMC3373023.

One may read the pKa as the pH at which an ionisable group is half protonated.

Bounds are passed on as bounds.

Targets include His4 (UniProt position 25, YTLKCHNTQLP); Glu17 (UniProt position 38, YKTCPEGKNLC); Asp42 (UniProt position 63, KRGCADNCPKN); Asp59 (UniProt position 80, VCCSTDKCN--); Lys13 (UniProt position 142, CSEYPKPACTL); Asp7 (UniProt position 136, AAVSVDCSEYP); Lys55 (UniProt position 184, LSHFGKC----); Glu10 (UniProt position 139, SVDCSEYPKPA); Lys29 (UniProt position 158, CGSDNKTYGNK); Glu43 (UniProt position 172, CNAVVESNGTL); Asp27 (UniProt position 156, PLCGSDNKTYG); Glu19 (UniProt position 148, PACTLEYRPLC); Lys34 (UniProt position 163, KTYGNKCNFCN); Tyr20 (UniProt position 149, ACTLEYRPLCG); Tyr11 (UniProt position 140, VDCSEYPKPAC); Tyr31 (UniProt position 160, SDNKTYGNKCN); His52 (UniProt position 181, TLTLSHFGKC-).

For the substance “Cardiotoxin V (CTX A5, cardiotoxin A5) (Naja naja atra (Naja atra, Taiwan cobra))”, the pKa with His4 is reported as 5.6; with Glu17, 4.0; in the series with Asp42, 3.2; with Asp59, less than 2.3.
With “Turkey ovomucoid third domain (OMTKY3) (Meleagris gallopavo)”, the pKa was 9.9 in the series with Lys13; not above 2.7 in the series with Asp7; 11.1 in the series with Lys55; 4.2 with Glu10; 11.1 with Lys29; 4.8 with Glu43. For the same substance, the pKa with Asp27 is given as not above 2.3; in the series with Glu19 it was 3.2; with Lys34, 10.1; with Tyr20 it was 11.1; with Tyr11, 10.2; with Tyr31, more than 12.5. Moreover, the pKa with His52 is 7.5.
